From patent publication US20240368668A1, “SUBSTRATES AND BIOMARKERS OF ADAMTS7” (The Broad Institute, Inc., priority 2021, published 2024)
Square brackets hold non-standard residues; d marks the D form. Ends that are not written are not given here. Met(O) = CS(=O)CC[C@H](N)C(=O)O

Target: T1, mouse ADAMTS7 (Mus musculus, UniProt Q68SA9, E373Q)
T1 construct: Full-length mouse Adamts7 1-1857 (Uniprot Q68SA9, WT or E373Q catalytic mutant); expressed in transfected cells; host or cells: Human Coronary Artery Smooth Muscle Cells (HCA-SMC, Lonza), adenovirus 50 MOI
T1 sequence (Q68SA9 221-1657 E373Q): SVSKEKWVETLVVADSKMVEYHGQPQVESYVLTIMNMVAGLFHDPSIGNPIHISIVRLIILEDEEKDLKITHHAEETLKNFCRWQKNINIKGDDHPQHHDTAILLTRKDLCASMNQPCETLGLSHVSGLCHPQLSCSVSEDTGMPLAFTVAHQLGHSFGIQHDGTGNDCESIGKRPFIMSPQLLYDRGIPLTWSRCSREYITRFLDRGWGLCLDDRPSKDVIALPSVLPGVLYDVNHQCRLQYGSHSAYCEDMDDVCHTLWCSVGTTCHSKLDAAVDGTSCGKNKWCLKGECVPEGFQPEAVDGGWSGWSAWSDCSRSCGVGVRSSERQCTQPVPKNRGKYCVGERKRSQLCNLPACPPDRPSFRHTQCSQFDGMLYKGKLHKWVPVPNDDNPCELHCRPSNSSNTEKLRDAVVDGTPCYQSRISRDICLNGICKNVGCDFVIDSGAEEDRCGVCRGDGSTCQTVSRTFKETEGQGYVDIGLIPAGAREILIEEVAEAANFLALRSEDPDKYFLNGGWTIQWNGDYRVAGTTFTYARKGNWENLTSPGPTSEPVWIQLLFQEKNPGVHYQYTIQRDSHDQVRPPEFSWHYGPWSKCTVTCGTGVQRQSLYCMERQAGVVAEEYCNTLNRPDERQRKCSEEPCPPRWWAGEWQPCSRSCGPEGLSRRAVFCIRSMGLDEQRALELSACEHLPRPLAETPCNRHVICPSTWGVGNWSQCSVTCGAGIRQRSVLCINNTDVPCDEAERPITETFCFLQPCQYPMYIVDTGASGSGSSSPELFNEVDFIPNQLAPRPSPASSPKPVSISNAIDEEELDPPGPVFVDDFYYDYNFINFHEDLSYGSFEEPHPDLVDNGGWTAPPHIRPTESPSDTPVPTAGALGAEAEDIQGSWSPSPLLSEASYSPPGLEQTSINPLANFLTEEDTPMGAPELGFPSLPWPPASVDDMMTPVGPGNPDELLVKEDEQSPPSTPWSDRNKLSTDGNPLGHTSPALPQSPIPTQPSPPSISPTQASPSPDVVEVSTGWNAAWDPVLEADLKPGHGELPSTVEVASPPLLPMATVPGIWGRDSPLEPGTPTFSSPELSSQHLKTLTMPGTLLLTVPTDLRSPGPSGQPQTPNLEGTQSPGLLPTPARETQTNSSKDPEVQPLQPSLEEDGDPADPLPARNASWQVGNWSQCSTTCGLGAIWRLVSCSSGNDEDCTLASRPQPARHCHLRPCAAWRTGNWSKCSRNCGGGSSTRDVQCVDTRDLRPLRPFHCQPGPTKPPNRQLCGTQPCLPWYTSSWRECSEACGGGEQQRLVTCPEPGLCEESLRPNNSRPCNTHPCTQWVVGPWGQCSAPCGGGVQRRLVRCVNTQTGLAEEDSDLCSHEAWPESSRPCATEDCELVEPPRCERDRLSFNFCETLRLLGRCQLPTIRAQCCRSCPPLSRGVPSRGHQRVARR
Test: TMT10 TAILS N-terminomics, SMC2 experiment (process replicates, trypsin/AspN digest)
Assay type: cell-based
Details: SMC2_TAILS HC; log fold change of N-terminal peptide, Ad-mADAMTS7 EQ over Luc
Outline: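 Full-length mouse ADAMTS7 (WT or E373Q mutant, C-terminal 3xFLAG) or luciferase was transduced via adenovirus, 50 MOI, into HCA-SMC (SMC1, SMC2) or HUVEC. SMC1: pooled media, technical triplicates 400 ug; SMC2: process triplicates 300 ug; HUVEC: process triplicates 200 ug, bFGF2 10 ng/ml.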

Row | Substance | logFC.mEQ.over.Luc
1 | VAT1_42 (AASPPLLR; listed as Homo sapiens) | 0.27
2 | TTN_5975 (VKEPPVEFTKPL; listed as Homo sapiens) | −0.19
3 | SPOCK1_27 (LAGGAGPNHGNFL; listed as Homo sapiens) | −0.65
4 | PAK4_141 (HSEAGGGSG; listed as Homo sapiens) | 0.69
5 | LTBP3_103 (LTGSGFR; listed as Homo sapiens) | −0.92
6 | VIM_333 (LKGTNESLER; listed as Homo sapiens) | −0.09
7 | NID2_291 (HSSVPLGR; listed as Homo sapiens) | 0.00
8 | TNS1_236 (QEGLAGYQR; listed as Homo sapiens) | −0.59
9 | MAP4_816 (VASTGPSSR; listed as Homo sapiens) | 0.02
10 | LTBP2_290 (QHVGLSR; listed as Homo sapiens) | −0.10
11 | LTBP2_502 (LVENSVETRPPPWLPASPGHSLW; listed as Homo sapiens) | −0.18
12 | LTBP2_250 (SAAGEGTLAR; listed as Homo sapiens) | −0.21
13 | NID1_360 (FHQQHPQVI; listed as Homo sapiens) | −0.22
14 | SHC2_267 (VAKDPINQRACHIL; listed as Homo sapiens) | 0.04
15 | NBEA_1892 (LEKVAPLLR; listed as Homo sapiens) | −0.08
16 | TNPO2_744 (VQ[Met(O)]VLNNLVEII[code n]RP[code n]TPKTLLE; listed as Homo sapiens) | 0.06

Row | Substance | logFC.mEQ.over.Luc
17 | POSTN_727 (IITGPEIKYTR; listed as Homo sapiens) | −0.09
18 | VIM_314 (QESTEYR; listed as Homo sapiens) | −0.22
19 | PTPRF_1859 (MRYEGVVDMFQTVKTLR; listed as Homo sapiens) | −0.08
20 | MAP4_815 (AVASTGPSSR; listed as Homo sapiens) | −0.02
21 | LOXL2_45 (HQPQAPANVAKIQLR; listed as Homo sapiens) | 0.11
22 | PPP1R18_295 (LSETLTR; listed as Homo sapiens) | 0.03
23 | NID2_951 (YAYPGAR; listed as Homo sapiens) | −0.06
24 | LOXL1_218 (AVASAGVIYPYQPR; listed as Homo sapiens) | −0.11
25 | LTBP2_79 (VAGLQPVER; listed as Homo sapiens) | −0.09
26 | MMP1_185 (FQPGPGIGG; listed as Homo sapiens) | −0.37
27 | MMP1_100 (FVLTEGNPR; listed as Homo sapiens) | −0.05
28 | TRGC2_86 (HRCIVRHENNK; listed as Homo sapiens) | 0.23
29 | PLIN3_75 (VSGAQPILSKL; listed as Homo sapiens) | 0.07
30 | QSOX1_210 (HKGVAVR; listed as Homo sapiens) | −0.49
31 | SRGN_59 (LLPGESNKIPR; listed as Homo sapiens) | 0.05
32 | LTBP3_208 (FLVPLGPGQISA; listed as Homo sapiens) | −0.03

Same assay, conditions: SMC2_TAILS HC; log fold change, mEQ over Luc

Row | Substance | logFC.mEQ.over.Luc
33 | COL1A2_866 (LLGAPGILGLPGSR; listed as Homo sapiens) | −0.46
34 | COL4A2_71 (YNGPPGLQGFPGLQGR; listed as Homo sapiens) | −0.32
35 | COL1A2_305 (LTGAKGAAGLPGVAGAPGLPGPR; listed as Homo sapiens) | −0.32
36 | COL1A2_1028 (LQGLPGIAGHHGDQGAPGSVGPAGPR; listed as Homo sapiens) | −0.25
37 | COL1A2_960 (AGAPGPHGPVGPAGKHGNR; listed as Homo sapiens) | −0.16
38 | COL1A2_630 (VGTAGPSGPSGLPGER; listed as Homo sapiens) | −0.30
39 | COL1A2_80 (QYDGKGVGLGPGPMGLMGPR; listed as Homo sapiens) | −0.33
40 | COL1A2_270 (VGNAGPAGPAGPR; listed as Homo sapiens) | −0.05
41 | COL18A1_1505 (LQPPVVQLHDSNPYPR; listed as Homo sapiens) | −0.01

Same assay, conditions: log fold change, ADAMTS7 EQ over luciferase

Row | Substance | logFC.mEQ.over.Luc
42 | VIM_333 (LKGTNESLER; listed as Homo sapiens) | −0.03
43 | THBS2_290 (LSENLKR; listed as Homo sapiens) | 0.59
44 | SERBP1_56 (QAAAQTNSNAAGKQLR; listed as Homo sapiens) | −0.09
45 | VIM_314 (QESTEYR; listed as Homo sapiens) | 0.03
46 | SRGN_59 (LLPGESNKIPR; listed as Homo sapiens) | −0.10
